From US20090074770A1

Key:
[1] = target: human serum albumin (human) (UniProt P02768); assay: SPR (Biacore), ratio of off rates at pH 7 and pH 5
[2] = target: human serum albumin (human) (UniProt P02768); assay: SPR (Biacore T100), serum albumin immobilized on CM5 chip, running buffer pH 5, 25 C
[3] = target: human serum albumin (human) (UniProt P02768); assay: SPR (Biacore T100), serum albumin immobilized on CM5 chip, running buffer pH 7, 25 C

Binder | Ratio pH 7/pH 5 [1] | koff [2] [s⁻¹] | koff [3] [s⁻¹]
Nanobody 4A2 (VHH, from a related filing) VHH: EVQLVESGGGLVQAGGSLRLSCAASGLSFSSYAMGWFRQAPGKEREFVAAIRRREGNSYYADSVKGRFTISRDSAKNTVYLQMNSLKPEDTALYSCAATAPHYSGSFAYAGGYDYWGQGTQVTVSS | 3.54 | 0.0227 | 0.00642
Nanobody 4D3 (VHH, from a related filing) VHH: EVQLVKSGGGLVQPGGSLRLSCAASGFTFSHYQMSWVRQAPGKDVEWVSSISMLGGGTTYADSVKGRFTISRDNAKSTLVLQMNNLKVEDTAVYYCARGFSGNYYRADLGQGTQVTVSS | 2.42 | 0.0137 | 0.00565
